Results published in patent publication US20230002480A1.

Key:
Test in all cases: cell-based or functional assay
[1] = molecular target: HIV-1 Env of pseudovirus Du172.17 (HIV-1)
[2] = molecular target: HIV-1 Env of pseudovirus 3016.v5.c45 (HIV-1)
[3] = molecular target: HIV-1 Env of pseudovirus T257-31 (HIV-1)
[4] = molecular target: HIV-1 Env of pseudovirus Ce2060_G9 (HIV-1)
[5] = molecular target: HIV-1 Env of pseudovirus CNE5 (HIV-1)
[6] = molecular target: HIV-1 Env of pseudovirus 1006_11_C3_1601 (HIV-1)
[7] = molecular target: HIV-1 Env of pseudovirus 3103.v3.c10 (HIV-1)
[8] = molecular target: HIV-1 Env of pseudovirus TRO.11 (HIV-1)
[9] = molecular target: HIV-1 Env of pseudovirus CNE30 (HIV-1)
[10] = molecular target: HIV-1 Env of pseudovirus 6244_13_B5_4576 (HIV-1)
[11] = molecular target: HIV-1 Env of pseudovirus 6540.v4.c1 (HIV-1)
[12] = molecular target: HIV-1 Env of pseudovirus REJO4541.67 (HIV-1)
[13] = molecular target: HIV-1 Env of pseudovirus R3265.c06 (HIV-1)
[14] = molecular target: HIV-1 Env of pseudovirus 620345.c01 (HIV-1)
[15] = molecular target: HIV-1 Env of pseudovirus HIV-001428-2.42 (HIV-1)
[16] = molecular target: HIV-1 Env of pseudovirus Q842.d12 (HIV-1)
[17] = molecular target: HIV-1 Env of pseudovirus 6041.v3.c23 (HIV-1)
[18] = molecular target: HIV-1 Env of pseudovirus T255-34 (HIV-1)
[19] = molecular target: HIV-1 Env of pseudovirus 211-9 (HIV-1)
[20] = molecular target: HIV-1 Env of pseudovirus 1012_11_TC21_3257 (HIV-1)
[21] = molecular target: HIV-1 Env of pseudovirus THRO4156.18 (HIV-1)
[22] = molecular target: HIV-1 Env of pseudovirus CNE21 (HIV-1)
[23] = molecular target: HIV-1 Env of pseudovirus CNE17 (HIV-1)
[24] = molecular target: HIV-1 Env of pseudovirus BJOX028000.10.3 (HIV-1)
[25] = molecular target: HIV-1 Env of pseudovirus 1394C9G1(Rev-) (HIV-1)
[26] = molecular target: HIV-1 Env of pseudovirus X1632_S2_B10 (HIV-1)
[27] = molecular target: HIV-1 Env of pseudovirus A07412M1.vrc12 (HIV-1)
[28] = molecular target: HIV-1 Env of pseudovirus 89-F1_2_25 (HIV-1)
[29] = molecular target: HIV-1 Env of pseudovirus Du422.1 (HIV-1)
[30] = molecular target: HIV-1 Env of pseudovirus X1193_c1 (HIV-1)
[31] = molecular target: HIV-1 Env of pseudovirus SC05_8C11_2344 (HIV-1)
[32] = molecular target: HIV-1 Env of pseudovirus ZM214M.PL15 (HIV-1)
[33] = molecular target: HIV-1 Env of pseudovirus R1166.c01 (HIV-1)
[34] = molecular target: HIV-1 Env of pseudovirus HIV-16845-2.22 (HIV-1)
[35] = molecular target: HIV-1 Env of pseudovirus 7030102001E5(Rev-) (HIV-1)
[36] = molecular target: HIV-1 Env of pseudovirus QH0692.42 (HIV-1)
[37] = molecular target: HIV-1 Env of pseudovirus CNE8 (HIV-1)

## NIH 45-46 (antibody)
[1]
  neutralization IC50: > 30 mg/L
  neutralization IC80: > 30 mg/L
[2]
  IC50, titer in TZM.bl cells: > 30 mg/L
  IC80, titer in TZM.bl cells: > 30 mg/L
[3]
  neutralization IC50: 0.23 mg/L
  neutralization IC80: 1.11 mg/L
[4]
  neutralization IC50: 0.14 mg/L
  neutralization IC80: 0.48 mg/L
[5]
  IC50, titer in TZM.bl cells: 0.09 mg/L
  IC80, titer in TZM.bl cells: 0.41 mg/L
[6]
  neutralization IC50: 0.05 mg/L
  neutralization IC80: 0.31 mg/L
[7]
  IC50, titer in TZM.bl cells: 1.66 mg/L
  IC80, titer in TZM.bl cells: 6.57 mg/L
[8]
  neutralization IC50: 1.9 mg/L
  neutralization IC80: 9.56 mg/L
[9]
  neutralization IC50: 0.34 mg/L
  neutralization IC80: 1.48 mg/L
[10]
  neutralization IC50: 0.07 mg/L
  neutralization IC80: 0.26 mg/L
[11]
  IC50, titer in TZM.bl cells: > 50 mg/L
  IC80, titer in TZM.bl cells: > 50 mg/L
[12]
  neutralization IC50: 0.003 mg/L
  neutralization IC80: 0.01 mg/L
[13]
  IC50, titer in TZM.bl cells: 0.04 mg/L
  IC80, titer in TZM.bl cells: 0.44 mg/L
[14]
  IC50, titer in TZM.bl cells: > 30 mg/L
  IC80, titer in TZM.bl cells: > 30 mg/L
[15]
  neutralization IC50: < 0.001 mg/L
  neutralization IC80: 0.01 mg/L
[16]
  neutralization IC50: 0.03 mg/L
  neutralization IC80: 0.03 mg/L
[17]
  IC50, titer in TZM.bl cells: 0.01 mg/L
  IC80, titer in TZM.bl cells: 0.04 mg/L
[18]
  IC50, titer in TZM.bl cells: 0.23 mg/L
  IC80, titer in TZM.bl cells: 2.38 mg/L
[19]
  IC50, titer in TZM.bl cells: > 50 mg/L
  IC80, titer in TZM.bl cells: > 50 mg/L
[20]
  neutralization IC50: 0.01 mg/L
  neutralization IC80: 0.04 mg/L
[21]
  neutralization IC50: 1.59 mg/L
  neutralization IC80: 6.02 mg/L
[22]
  neutralization IC50: 7.53 mg/L
  neutralization IC80: > 50 mg/L
[23]
  neutralization IC50: 0.15 mg/L
  neutralization IC80: 0.55 mg/L
[24]
  IC50, titer in TZM.bl cells: 0.07 mg/L
  IC80, titer in TZM.bl cells: > 50 mg/L
[25]
  neutralization IC50: 0.09 mg/L
  neutralization IC80: 0.38 mg/L
[26]
  IC50, titer in TZM.bl cells: 0.07 mg/L
  IC80, titer in TZM.bl cells: > 50 mg/L
[27]
  IC50, titer in TZM.bl cells: 0.03 mg/L
  IC80, titer in TZM.bl cells: 0.13 mg/L
[28]
  IC50, titer in TZM.bl cells: > 50 mg/L
  IC80, titer in TZM.bl cells: > 50 mg/L
[29]
  neutralization IC50: > 50 mg/L
  neutralization IC80: > 50 mg/L
[30]
  IC50, titer in TZM.bl cells: 0.04 mg/L
  IC80, titer in TZM.bl cells: 0.16 mg/L
[31]
  neutralization IC50: 0.14 mg/L
  neutralization IC80: 0.38 mg/L
[32]
  neutralization IC50: 0.05 mg/L
  neutralization IC80: 0.39 mg/L
[33]
  IC50, titer in TZM.bl cells: 1.68 mg/L
  IC80, titer in TZM.bl cells: 1.68 mg/L
[34]
  neutralization IC50: 2.05 mg/L
  neutralization IC80: 12.1 mg/L
[35]
  neutralization IC50: 0.14 mg/L
  neutralization IC80: 0.63 mg/L
[36]
  neutralization IC50: 0.55 mg/L
  neutralization IC80: 1.56 mg/L

## VRC07 (antibody)
[1]
  neutralization IC50: 0.796 mg/L
  neutralization IC80: 3.66 mg/L
[2]
  IC50, titer in TZM.bl cells: 0.095 mg/L
  IC80, titer in TZM.bl cells: 0.392 mg/L
[3]
  neutralization IC50: 0.421 mg/L
  neutralization IC80: 3.17 mg/L
[4]
  neutralization IC50: 0.085 mg/L
  neutralization IC80: 0.422 mg/L
[5]
  IC50, titer in TZM.bl cells: 0.138 mg/L
  IC80, titer in TZM.bl cells: 0.524 mg/L
[6]
  neutralization IC50: 0.015 mg/L
  neutralization IC80: 0.046 mg/L
[7]
  IC50, titer in TZM.bl cells: 0.675 mg/L
  IC80, titer in TZM.bl cells: 1.95 mg/L
[8]
  neutralization IC50: 0.132 mg/L
  neutralization IC80: 0.456 mg/L
[9]
  neutralization IC50: 0.326 mg/L
  neutralization IC80: 1.08 mg/L
[10]
  neutralization IC50: 0.065 mg/L
  neutralization IC80: 0.23 mg/L
[11]
  IC50, titer in TZM.bl cells: > 50 mg/L
  IC80, titer in TZM.bl cells: > 50 mg/L
[12]
  neutralization IC50: 0.011 mg/L
  neutralization IC80: 0.037 mg/L
[14]
  IC50, titer in TZM.bl cells: > 50 mg/L
  IC80, titer in TZM.bl cells: > 50 mg/L
[15]
  neutralization IC50: 0.004 mg/L
  neutralization IC80: 0.016 mg/L
[16]
  neutralization IC50: 0.015 mg/L
  neutralization IC80: 0.051 mg/L
[17]
  IC50, titer in TZM.bl cells: 0.018 mg/L
  IC80, titer in TZM.bl cells: 0.058 mg/L
[18]
  IC50, titer in TZM.bl cells: 0.227 mg/L
  IC80, titer in TZM.bl cells: 0.987 mg/L
[19]
  IC50, titer in TZM.bl cells: 5.92 mg/L
  IC80, titer in TZM.bl cells: 38 mg/L
[20]
  neutralization IC50: 0.014 mg/L
  neutralization IC80: 0.045 mg/L
[21]
  neutralization IC50: 2.4 mg/L
  neutralization IC80: 12.2 mg/L
[37]
  IC50, titer in TZM.bl cells: 0.45 mg/L
  IC80, titer in TZM.bl cells: 1.56 mg/L
[22]
  neutralization IC50: 0.05 mg/L
  neutralization IC80: 0.222 mg/L
[23]
  neutralization IC50: 0.136 mg/L
  neutralization IC80: 0.651 mg/L
[24]
  IC50, titer in TZM.bl cells: 0.011 mg/L
  IC80, titer in TZM.bl cells: 0.069 mg/L
[25]
  neutralization IC50: 0.112 mg/L
  neutralization IC80: 0.368 mg/L
[26]
  IC50, titer in TZM.bl cells: 0.023 mg/L
  IC80, titer in TZM.bl cells: 0.107 mg/L
[27]
  IC50, titer in TZM.bl cells: 0.11 mg/L
  IC80, titer in TZM.bl cells: 0.353 mg/L
[28]
  IC50, titer in TZM.bl cells: > 50 mg/L
  IC80, titer in TZM.bl cells: > 50 mg/L
[29]
  neutralization IC50: > 50 mg/L
  neutralization IC80: > 50 mg/L
[30]
  IC50, titer in TZM.bl cells: 0.037 mg/L
  IC80, titer in TZM.bl cells: 0.249 mg/L
[31]
  neutralization IC50: 0.133 mg/L
  neutralization IC80: 0.401 mg/L
[32]
  neutralization IC50: 0.198 mg/L
  neutralization IC80: 1.42 mg/L
[33]
  IC50, titer in TZM.bl cells: 0.81 mg/L
  IC80, titer in TZM.bl cells: 3.17 mg/L
[34]
  neutralization IC50: 1.21 mg/L
  neutralization IC80: 6.15 mg/L
[35]
  neutralization IC50: 0.205 mg/L
  neutralization IC80: 0.911 mg/L
[36]
  neutralization IC50: 0.5 mg/L
  neutralization IC80: 1.86 mg/L
